Test results published in publication PMC3556581 (Nature structural & molecular biology, 2009).

How the values were obtained:
[1] = target: parental cyclophilin A (CypA) (rhesus macaque; identical in sequence …, UniProt P62940 1-165); test: ITC
[2] = target: CypA domain of rhesus macaque TRIMCyp (RhTC CypA) (rhesus macaque, UniProt P62940 1-165, D66N | R69H); test: ITC

B1: HIV-2 N-terminal capsid (CA^N) domain (domain or fragment)
chain: not shown
Kd [1]: 91 µM
Kd [2]: 3 µM
dH [2]: -1.16 kcal/mol
